Source: US10758588 (PURDUE RESEARCH FOUNDATION, dated 2020)
* marks the point of attachment. 5FAM = O=C1OC2(c3ccc(O)cc3Oc3cc(O)ccc32)c2ccc(C(=O)*)cc21; Ahx = NCCCCCC(=O)O

Molecular target: T1, N-terminal His-tag PCNA (recombinant (His)6-PCNA fusion protein; Proliferating Cell Nuclear Antigen) (Homo sapiens (Human), UniProt P12004 1-261)
T1 construct: Expressed in E. coli BL21 (DE3) from vector pEV-L8, which carries an N-terminal His-tag and a TEV protease site; No tag cleavage is described; also called His-tagged PCNA; recombinant PCNA
T1 sequence (P12004 other isoform, or with tags, fused parts or gaps limits assumed): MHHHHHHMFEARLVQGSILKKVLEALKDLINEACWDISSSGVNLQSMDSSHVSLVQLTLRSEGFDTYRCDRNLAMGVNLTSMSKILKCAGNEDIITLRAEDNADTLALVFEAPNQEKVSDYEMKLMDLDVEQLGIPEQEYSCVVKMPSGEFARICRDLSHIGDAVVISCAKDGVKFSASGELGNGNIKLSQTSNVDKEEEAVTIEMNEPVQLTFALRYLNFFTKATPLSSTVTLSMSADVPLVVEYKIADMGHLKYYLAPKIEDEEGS
Assay: fluorescence polarization; fixed FAM-PL (5 nM) titrated with two-fold increasing recombinant His-tagged PCNA
Excerpt: [a]N-substituted side chains listed from N-terminus to most C-terminal [b]as determined by high resolution electrospray ionization or MALDI-TOF [c]based on dry mass recovery after HPLC purification After synthesis and purification, peptoids were screened in a fluorescence polarization (FP) assay to find ligands that disrupted the interaction between His-tagged PCNA and fluorescein-labeled Pogo Ligase peptide (FAM-PL) (Kontopidis, G., et al. Proc. Natl. Acad. Sci. U.S.A. 2005, 102 (6), 1871-1876). In the design of the assay, conditions were adopted from Pedley et al., 2016, to improve the dynamic range between bound and unbound FAM-PL. While an acceptable Z-score was determined using the original 10 nM peptide and 100 nM PCNA (FIG. 4), an improved dynamic range was established by adjusting the ligand and receptor concentrations. […]
Increasing amounts of recombinant (His)_6-PCNA protein (SEQ ID NO: 3) were prepared in FP binding buffer (25 mM HEPES at pH 7.4, 10% glycerol, 0.01% Triton X-100), with an 11-step 2-fold dilution series, and a top concentration of 30 μM. […] Fluorescence polarization and resultant anisotropy were measured on a BioTek Synergy 4 Multi-Detection Microplate Reader using an excitation filter of 485 nm and an emission filter of 530 nm, each with a 20 nm band-pass.

B1: 5-FAM-labeled POGO ligase peptide (FAM-PL) (peptide)
peptide: {5FAM-Ahx}-SAVLQKKITDYFHPKK-NH2
notes: also called fluorescein-labeled Pogo Ligase peptide; PL peptide
  Kd: 107 nM
